Measurements as given in patent US20190085082A1 (CANCER RESEARCH TECHNOLOGY, published 2019).

Assays:
[1] = molecular target: T1, murine CLEC14A-Fc fusion protein (mouse, UniProt Q8VCP9 22-386); test: ELISA of hybridoma supernatants on absorbed antigen
T1 construct: extracellular domain; also called CM; mCLEC14A-Fc; not shown: human Fc tag from the pcDNA3-Fc plasmid
T1 sequence (looked up): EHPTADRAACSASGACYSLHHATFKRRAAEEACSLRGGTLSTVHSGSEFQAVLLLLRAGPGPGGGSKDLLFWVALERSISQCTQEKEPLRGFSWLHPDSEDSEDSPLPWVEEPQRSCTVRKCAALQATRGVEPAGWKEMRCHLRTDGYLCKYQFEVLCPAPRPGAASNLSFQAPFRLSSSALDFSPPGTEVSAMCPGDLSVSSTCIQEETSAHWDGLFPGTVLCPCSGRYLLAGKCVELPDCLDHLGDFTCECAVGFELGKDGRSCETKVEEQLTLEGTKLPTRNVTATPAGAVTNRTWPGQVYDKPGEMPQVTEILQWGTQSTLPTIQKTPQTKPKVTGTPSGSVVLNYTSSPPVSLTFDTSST
Method: More than 500 HAT-resistant hybridoma clones from each mouse were obtained. All of the clone supernatants were tested twice with 4 days interval by ELISA against three absorbed antigens (CM, CH and Fc). […] The positives were cloned 2-4 times by the limiting dilution method, propagated in culture flasks and injected into mice for ascites. One clone (CRT-3) was the result of immunisation with CLEC14a human-AP (CHAP), and the other clone (CRT-2) was the result of immunisation with CLEC14a mouse-AP (CM-AP).

[2] = molecular target: T2, thrombomodulin (CD141), wild type, with C-terminal GFP tag, expressed on HEK293T cells (UniProt P07204 19-575); test: flow cytometry, HEK293T cells transfected with thrombomodulin (C-terminal GFP tag, GFP-positive cells gated)
T2 construct: whole, on cells; also called WT CD141; VVT CD141; not shown: C-terminal GFP tag
T2 sequence (P07204 19-575): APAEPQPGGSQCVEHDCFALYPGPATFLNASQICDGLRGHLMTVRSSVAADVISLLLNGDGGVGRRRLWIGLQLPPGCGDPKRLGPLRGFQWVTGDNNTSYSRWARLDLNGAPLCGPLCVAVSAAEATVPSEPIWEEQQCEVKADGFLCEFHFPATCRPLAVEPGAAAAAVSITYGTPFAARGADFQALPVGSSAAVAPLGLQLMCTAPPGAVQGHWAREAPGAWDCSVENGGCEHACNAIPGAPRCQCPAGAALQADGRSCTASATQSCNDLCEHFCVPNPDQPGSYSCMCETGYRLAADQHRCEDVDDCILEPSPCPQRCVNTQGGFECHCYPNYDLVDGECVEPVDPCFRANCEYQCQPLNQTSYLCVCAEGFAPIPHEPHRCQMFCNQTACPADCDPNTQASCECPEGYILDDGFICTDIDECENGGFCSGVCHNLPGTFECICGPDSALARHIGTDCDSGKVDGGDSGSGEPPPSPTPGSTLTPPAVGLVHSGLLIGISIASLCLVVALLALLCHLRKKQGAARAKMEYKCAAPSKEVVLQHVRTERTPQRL

[3] = molecular target: T3, full length human CLEC14A on cells (engineered CHO, SEND or 293 cells; HUVECs) (human, UniProt Q86T13 22-490); test: fluorescence microscopy of HUVEC treated with CRT-3, antibody localisation at 0 and 90 minutes
T3 construct: HUVECs express it naturally; also called huCLEC
T3 sequence: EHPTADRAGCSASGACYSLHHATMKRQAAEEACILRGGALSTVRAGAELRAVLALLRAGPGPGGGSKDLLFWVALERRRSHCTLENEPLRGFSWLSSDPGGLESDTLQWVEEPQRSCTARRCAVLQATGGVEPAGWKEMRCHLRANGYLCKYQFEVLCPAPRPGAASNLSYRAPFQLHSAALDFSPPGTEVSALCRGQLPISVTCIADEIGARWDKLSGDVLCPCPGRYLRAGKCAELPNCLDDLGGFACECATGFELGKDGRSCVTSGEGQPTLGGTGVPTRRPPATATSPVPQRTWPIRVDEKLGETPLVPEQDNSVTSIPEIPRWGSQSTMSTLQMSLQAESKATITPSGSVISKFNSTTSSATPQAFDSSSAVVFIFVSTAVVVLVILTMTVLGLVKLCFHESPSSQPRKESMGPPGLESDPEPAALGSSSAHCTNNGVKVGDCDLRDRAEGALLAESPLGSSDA

B1: CRT-3 anti-CLEC14A monoclonal antibody (antibody, IgG1, V domains shown)
VH: EVQLQQSGTVLARPGASVKMSCKASGYTFTSYWMHWVKQRPGQGLEWIGAIYPGNSDTSYNQKFKGKAKLTAVTSTSTAYMELSSLTNEDSAVFYCTHYYGSDYAMDYWGQGTSVTV
VL: QIVLTQSPAIMSASLGERVTMTCTASSSVSSSYLHWYQQKPGSSPKLWIYSTSNLASGVPARFSGSGSGTSYSLTISSMEAEDAATYYCHQYHRSPRTFGGGTKLEIKR
- binding result [1]: binds
- binding result [2]: no binding
- binding result [3]: binds
